# Assay results taken from patent US12098378B2, “Anti-fungal polypeptides” (priority 2020, dated 2024).
# B1: 10G11: VHH polypeptide, SEQ ID NO: 2, begins with a D residue (protein)
# VHH: DVQLVESGGGLVQAGGSLRLSCAASRSIFSINAMDWYRQAPGKQREWVAGITRGGTTKYADSVKGRFTISRDNAKKKVYLQMNSLKPEDTAVYYCNVLRGEQPWTRDYWGQGTQVTVSS
# What was measured:
# [1] = test system: liposomes from total lipid extract (TLE) of Botrytis cinerea hyphae; test: Interaction with DPH-containing liposomes (fluorescence); format: binding
# Method: (§1) In order to investigate the putative interaction partner of 10G11 and its variants, lipids were extracted from Botrytis cinerea hyphae as described in Example 1. For the further fractionation of the total lipid extract thin-layer chromatography was used (TLC; Skipski et al (1965), Biochimica et Biophysica Acta, 106(2): 386-396). The extract was spotted on a silica gel glass plate and run in a chromatography tank filled with 100 mL of the chloroform/methanol mixture (85/15, v/v). Lipid bands separated by TLC were stained with alpha-naphthol enabling visual detection of lipids. Four fractions were identified (FIG. 10): Fraction 1, the fraction of polar lipids; Fraction 2, with a Retention Factor (Rf) similar to the glucosylceramide reference standard (GlcCer from Tamogitake), likely to be ceramides; Fraction 3, with a slightly higher Rf than the reference standard; and Fraction 4, the non-polar phospholipids (PLs). For obtaining sufficient material from the separate Fractions, normal-phase flash chromatography can be used (Gorden, M. H. (2015). Encyclopedia of Analytical Science (Second edition), Elsevier). The TLE was therefore dissolved in CH2Cl2 by addition of a few drops of MeOH and loaded onto a 4 g normal phase flash cartridge with 15 μm particles. The column was run with CH2Cl2/MeOH (85/15, v/v) as the eluent. Finally, Fractions were filtered through a 0.45 μm syringe filter (nylon membrane), and dried. Hereafter, liposomes from the true lipid extract and its individual fractions were prepared via the thin-film hydration method with the addition of 1,6-diphenyl-1,3,5-hexatriene (DPH) (Trucillo et al, 2020. Processes 8(9):1022; Zhang, 2017. Liposomes 1522:1 7-22). […] Any disruption of the lipid membranes would lead to a decrease in fluorescent signal. Hereafter, the interaction of 10G11 with these liposomes was tested.
# [2] = test system: liposomes from Fraction 4, the non-polar phospholipids (PLs), of Botrytis cinerea lipid extract; test: as above; format: binding; settings: Fraction 4 liposomes (FIG. 11)
# Method: as §1
# [3] = test system: liposomes from Fraction 3 of Botrytis cinerea lipid extract; test: as above; format: binding; settings: Fraction 3 liposomes (FIG. 11)
# Method: as §1
# [4] = test system: Podosphaera aphanis; test: Control of powdery mildew on strawberry in greenhouse; format: in vivo; settings: 250, 500, 750 g ai/ha, 6 applications
# Method: Four replicates of 20 strawberry plants (3 m^2 per plot) were treated with 0.576 or 0.72 l of spray solution, corresponding with a spray volume of […], according to local practice. The spray mix contained a concentration of active ingredient as described in Table 6. Six applications were performed spaced 7 days apart. No artificial infection was performed and first spray was placed before first symptoms appeared. The efficacy of 10G11 was compared to that of a non-treated control and the chemical reference Topas 2.5 WG (Penconazole). In addition, a chemical rotation of Ganzo (Myclobutanil), Topas 2.5 WG (Penconazole) and Signum (Boscalid+Pyraclostrobin) was evaluated. A seventh treatment replaced part of the chemicals in this chemical rotation by 10G11 as described in Table 6.
# Efficacy assessments were performed on 20 leaves per plot, assessing the percentage of leaf area affected (PESSEV) and the percentage of leaves affected (PESINC) on the whole plot. Assessments were performed on a weekly basis and continued until 2 weeks after the last application.
# [5] = test system: Phakopsora pachyrhizi; test: Control of soybean rust on soybeans in glasshouse; format: in vivo
# Method: Four replicates of pot-grown soybean plants (4 plants/pot) were sprayed with 125 ml aqueous suspension, containing a concentration of active ingredient of as described in Table 1. Two applications were done spaced 14 days apart. Plants were inoculated once with Phakopsora pachyrhizi two days after the first application (application A) of active ingredient. The growth inhibitory characteristics of 10G11Q were compared to those of a non-antifungal reference VHH molecule, a non-treated control and the systemic chemical Quadris Top SBX (azoxystrobin, difeconazole).
# Disease severity is recorded as percent severity on a scale of 0-100%. Recording started when first symptoms appear followed by weekly assessment at least till 3 weeks after the second application (application B) of the active ingredient. Percent severity ratings are separated based on the position on the plant: Percent severity low canopy, Percent severity mid canopy and Percent severity upper canopy to track the progress of the disease well and following the natural development of the disease in nature.
# Time indications in the graphs on the x-axis concern the time of recording of disease severity or incidence. These are relative and are indicated by the number of days after application when recording occurred. For example, a recording 13 Days After the second application (application B) will be represented as 13DAB. This code is applicable for FIG. 15 to FIG. 28.
# [6] = test system: Oidium neolycopersici; test: Control of powdery mildew on tomato; format: in vivo; settings: 250, 500, 750 g ai/ha, 5 applications, until one week after the last application
# Method: Four replicates of 15 tomato plants (9.9 m^2 per plot) were treated with […] of spray solution, corresponding with a spray volume of […], according to local practice. The spray mix contained a concentration of active ingredient as described in Table 5. Five applications were performed spaced 7 days apart. No artificial infection was performed and first spray was placed when first symptoms were observed. The efficacy of 10G11 was compared to that of a non-treated control and the chemical reference Topas (Penconazole). In addition, a chemical rotation of Systhane Forte (Myclobutanil), Ortiva (Azoxystrobin), Signum (Boscalid. Pyraclostrobin) and Topas was evaluated. A seventh treatment replaced part of the chemicals in this chemical rotation by 10G11 as described in Table 5.
# The percentage of leaf area affected by the disease (disease severity) was recorded in 10 randomly selected leaves per plot. Percentage incidence (PESINC; % of affected leaves), was calculated based on these values. Assessments were performed on a weekly basis and continued until 1 week after the last application.
# [7] = test system: Botrytis cinerea spores; test: Microscopic time-lapse imaging of spores (mode of action); format: cell-based; settings: IncuCyte time-lapse imaging (FIG. 14)
# From the text: The action of 10G11 disrupting liposomes (Example 12), further underscores lysing of spores can be attributed to the action of 10G11.
molecule,measurement,setting,value
B1,membrane disruption of liposome vesicles,[1]; stated generally for the liposomes with which 10G11 interacts (FIG. 11),breakage of the vesicles
same,interaction with lipids in liposomes (DPH fluorescence),[1]; total lipid extract (TLE) liposomes (FIG. 11),interacts
same,interaction with lipids in liposomes (DPH fluorescence),[2],interacts
same,interaction with lipids in liposomes (DPH fluorescence),[3],interacts
same,severity (PESSEV) of powdery mildew on strawberry,[4]; until two weeks after the last application (FIG. 24),clear and dose-related performance
same,incidence (PESINC) of powdery mildew on strawberry,[4]; until two weeks after the last application (FIG. 25),clear and dose-related performance
same,"percent severity of Asian soybean rust, lower canopy","[5]; 250, 500, 750 g ai/ha, 2 applications, until 3 weeks after the second application, vs reference VHH and non-treated inoculated control (FIG. 15)",prominent and dose-related growth inhibition pattern
same,"percent severity of Asian soybean rust, mid canopy","[5]; 250, 500, 750 g ai/ha, 2 applications, until 3 weeks after the second application, vs reference VHH and non-treated inoculated control (FIG. 16)",prominent and dose-related growth inhibition pattern
same,"percent severity of Asian soybean rust, upper canopy","[5]; 250, 500, 750 g ai/ha, 2 applications, until 3 weeks after the second application, vs reference VHH and non-treated inoculated control (FIG. 17)",prominent and dose-related growth inhibition pattern
same,activity compared with chemical reference Quadris Top SBX,[5]; 750 g ai/ha,on par
same,severity of powdery mildew on tomato (percentage of leaf area affected),[6]; mild disease pressure (FIG. 22),clear and dose-related performance
same,incidence (PESINC) of powdery mildew on tomato,[6]; mild disease pressure (FIG. 23),clear and dose-related performance
same,spore lysis (loss of structural integrity),[7],substantial portion of spores are also lysed
same,spore outgrowth,[7],inhibited in commencing spore outgrowth
